Reference: patent US8158585B2, “Cross-β structure comprising amyloid-binding proteins and methods for detection of the cross-β structure, for modulating cross-β structures fiber formation and modulating cross-β structure-mediated toxicity” (CrossBeta Biosciences B.V., priority 2002, dated 2012)

Assays:
[1] = test system: neuronal cell death; experiment: Endostatin-induced cell death by methylene blue staining; type: cell-based; settings: precipitated form
From the text: FIG. 6 is a set of graphs illustrating that endostatin can form fibers comprising cross-β structure and stimulates plasminogen activation. […] Aβ is shown for comparison. Panel D is an analysis of endostatin-induced cell death by methylene blue staining. […] Direct cell death, but not cell detachment, is protected in the presence of sufficient glucose. Buffer prec. indicates control buffer.

[2] = molecular target: T1, tPA-mediated plasminogen activation (Homo sapiens, UniProt P00750); experiment: Plasminogen activation assay; type: biochemical; settings: plasminogen 200 μg ml−1, tPA 200 pM, 5 μM co-factor; S-2251
T1 construct: purchased Boehringer-Ingelheim (Germany)
Protocol: Plasminogen (200 μg ml^−1) was incubated with tPA (200 pM) in the presence or the absence of a co-factor (5 μM of either endostatin, Aβ (1-40), or one the fibrin-derived peptides 85, 86 and 87). At the indicated time intervals, samples were taken and the reaction was stopped in a buffer containing 5 mM EDTA and 150 mM εACA. After collection of the samples, a chromogenic plasmin substrate S-2251 was added and plasmin activity was determined kinetically in a spectrophotometer at 37° C.

[3] = molecular target: T2, albumin-g6p (Bos taurus, UniProt P02769); experiment: ELISA: binding of tPA-F-GST and RPTPμ-GST to glycated albumin; parameters: species or system bovine; settings: in the presence of excess εACA
T2 construct: Bovine serum albumin (BSA) fraction V pH 7.0; host or cells: bovine serum, fraction V
Protocol: (§1) Binding of tPA-F-GST and RPTPμ-GST to fibrous amyloids human Aβ (1-40) and albumin-[…] was assayed with an ELISA. In brief, human Aβ (1-40), albumin-[…], or buffer only, were coated on a peptide I Immobilizer or a protein I Immobilizer, respectively. Wells were incubated with the purified GST-tagged constructs or control medium and binding was detected using primary anti-GST monoclonal antibody 2F3 and RAMPO. The wells were also incubated with […] of tPA in the presence of 10 mM of εACA. Binding of tPA is independent of the lysyl binding site located at the kringle 2 domain. Binding of tPA was measured using primary antibody 374B and RAMPO. Experiments were performed in triplicate and blank readings of non-coated wells were substracted.

[4] = molecular target: T3, FXII binding to albumin-AGE (Bos taurus, UniProt P02769); experiment: Competitive FXII - tPA ELISA on coated albumin-AGE; settings: 15 nM FXII; concentration series up to 150 times the kD
T3 construct: bovine serum albumin (fraction V, catalogue #A-7906); purchased Calbiochem (FXII); ICN or Sigma-Aldrich (albumin) 233490 (FXII); A-7906 (Sigma albumin)

[5] = molecular target: T4, H-43 binding to immobilized IAPP (Homo sapiens, UniProt P10997); experiment: Competitive ELISA: tPA and H-43 on immobilized IAPP; settings: 100 nM H-43, concentration series of tPA
T4 construct: purchased Pepscan, Inc. (The Netherlands) or peptide synthesis facility at the Netherlands Cancer Institute; host or cells: synthetic peptide
T4 sequence (P10997 34-70 limits assumed): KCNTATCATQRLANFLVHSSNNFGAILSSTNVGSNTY
Protocol: (§2) For ELISAs, amyloid compounds were immobilized on Exiqon peptide or protein Immobilizers (Vedbaek, Denmark), as described before. Anti-AGE antibodies and commercially available anti-Aβ (1-42) H-43 (Santa Cruz Biotechnology, Santa Cruz, Calif., USA) were diluted in PBS with 0.1% v/v Tween 20. Rabbit anti-human vitronectin K9234 was a kind gift of Dr. H. de Boer (UMC Utrecht) and was used as a negative control. For ELISAs with mouse polyclonal anti-albumin-AGE/Aβ, control serum with antibody elicited against an unrelated protein was used. Binding of mouse polyclonal anti-albumin-AGE/Aβ was performed using a dilution series of serum in PBS/0.1% Tween 20. For competitive binding assays with IAPP, anti-AGE1 was pre-incubated with varying IAPP concentrations. The IAPP fibers were spun down and the supernatant was applied in triplicate to wells of an ELISA plate coated with Aβ. Competitive binding assays with multiligand cross-β structure binding serine protease tPA were performed in a slightly different way. Coated Aβ and IAPP are overlayed with an anti-AGE1 or anti-Aβ (1-42) H-43 concentration related to the kD, together with a concentration series of tPA. A 10^7-10^4 times molar excess of lysine analogue εACA (10 mM) was present in the binding buffer in order to avoid binding of tPA to lysine residues of Aβ and IAPP, which would be independent of the presence of amyloid structures.

[6] = molecular target: T2, albumin-g6p; experiment: Competitive binding of Thioflavin T and tPA to albumin-g6p (fluorescence, absorbance); parameters: species or system bovine; settings: increasing amounts of tPA
Protocol: A solution of 430 nM albumin-g6p and 19 μM of Thioflavin T was incubated with increasing amounts of tPA, for one hour at room temperature. For blank readings, albumin-g6p was omitted. Samples were prepared in four-fold in 50 mM glycine-NaOH pH 9. Emission measurements were performed as described above.
Albumin-g6p (500 nM) and Thioflavin T (10 μM) were incubated with increasing amounts of tPA, in 50 mM glycine-NaOH pH 9, for one hour at room temperature. Absorbance measurements were performed at the albumin-g6p Thioflavin T absorbance maximum at 420 nm. Samples were prepared in four-fold. For blank readings, albumin-g6p was omitted in the solutions. Absorbance was read in a quartz cuvette on a Pharmacia Biotech Ultrospec 3000 UV/visible spectrophotometer (Cambridge, England).

[7] = molecular target: T5, mΔIAPP (Mus musculus, UniProt P12968); experiment: Amyloid ELISA with tPA F-EGF-GST: non-amyloid control; type: binding
T5 construct: purchased Pepscan, Inc. or peptide synthesis facility of the Netherlands Cancer Institute; host or cells: chemical synthesis
Protocol: In order to define the affinity of the purified tPA F-EGF-GST recombinant protein, ELISAs were performed with immobilized amyloid (poly)peptides and non-amyloid control ΔmIAPP. Twenty-five μg ml^−1 of Aβ, FP13, IAPP or ΔmIAPP was immobilized on Exiqon peptide immobilizer plates. A concentration series of tPA F-EGF-GST in the presence of excess εACA was added to the wells and binding was assayed using anti-GST antibody Z-5. As a control, GST (Sigma-Aldrich, St. Louis, Mo., USA, catalogue #G-5663) was used at the same concentrations.

[8] = molecular target: Aβ (1-40) (Homo sapiens, UniProt P05067); experiment: ELISA: binding of tPA-F-GST and RPTPμ-GST to human Aβ (1-40); parameters: Peptide Aβ (1-40), containing amino acids as present in the described human Alzheimer peptide; purchased Pepscan, Inc. (The Netherlands) or peptide synthesis facility at the Netherlands Cancer Institute; host or cells: synthetic peptide; settings: in the presence of excess εACA
Protocol: as §1

[9] = test system: anti-AGE1 binding to amyloid peptides (Aβ (1-40), IAPP); experiment: Competitive ELISA: tPA and anti-AGE1 on immobilized Aβ (1-40) and IAPP; settings: 250 or 18 nM α-AGE1; 10 mM εACA
Protocol: as §2

[10] = molecular target: T6, FXII binding to hAβ (1-40) (Homo sapiens, UniProt P05067); experiment: Competitive FXII - tPA ELISA on coated hAβ (1-40); settings: 2.5 nM FXII; concentration series up to 135 times the kD
T6 construct: Peptide Aβ (1-40), containing amino acids as present in the described human Alzheimer peptide; purchased Calbiochem (FXII); Pepscan or Netherlands Cancer Institute (peptide) 233490 (FXII)

[11] = molecular target: T7, Aβ (Homo sapiens, UniProt P05067); experiment: Solid-phase binding ELISA of tPA, plasminogen and plasmin to coated Aβ; settings: 50 mM ε-aminocaproic acid
T7 construct: Peptide Aβ (1-40), containing amino acids as present in the described human Alzheimer peptide; purchased Pepscan, Inc. or peptide synthesis facility of the Netherlands Cancer Institute; host or cells: chemical synthesis
Protocol: FIG. 3 is a set of graphs depicting binding of tPA, plasminogen and plasmin to Aβ. Aβ was coated onto plastic 96-well plates. Increasing concentrations of either (A) tPA or (B) plasmin(ogen) were allowed to bind to the immobilized peptide. After extensive washing, tPA and plasmin(ogen) binding was assessed by enzyme-linked immunosorbent assays using anti-tPA and anti-plasminogen antibodies. Binding of (C) tPA and (D) plasmin to Aβ in the presence of 50 mM ε-aminocaproic acid (ε-ACA) was assessed as in A and B.
To test whether tPA, plasminogen and plasmin bind Aβ, solid-phase binding assays were performed. Aβ was coated onto plastic 96-well plates and binding of the peptide to either plasmin(ogen) or to tPA was assessed by overlaying the coated peptide with increasing concentrations of either tPA, plasminogen or plasmin. Binding was assessed using specific antibodies to either plasmin(ogen) or to tPA by performing ELISA. […] However, activated plasminogen (plasmin) does bind to Aβ and does so with a kD of 47 nM. […] To test this, use was made of the lysine analogue ε-aminocaproic acid (εACA) and binding of plasmin and tPA to Aβ was tested in its presence. […] In contrast, εACA has no effect on the tPA-Aβ interaction (FIG. 3, Panel C). Thus, it was concluded that plasmin binds to free lysines that were generated during the incubation period, presumably via its lysine-binding Kringle domain(s). In line with this, the kD of plasminogen Kringle domain binding to free lysines in fibrin is similar to the kD for plasmin binding to Aβ.

[12] = molecular target: T8, human amylin fragment hΔIAPP (Homo sapiens, UniProt P10997); experiment: Dot blot: binding of FXII to hΔIAPP; settings: 2 nM FXII
T8 construct: purchased Pepscan, Inc. or peptide synthesis facility of the Netherlands Cancer Institute; host or cells: chemical synthesis
Protocol: (§3) The binding of human FXII (Calbiochem, La Jolla, Calif., USA, catalogue #233490) to amyloid (poly)peptides was tested. Prototype amyloid peptides human amyloid-β (1-40) (hAβ (1-40)) and human fibrin fragment α147-159 FP13, and glucose-6-phosphate glycated bovine albumin (albumin-advanced glycation end product (AGE)) and glucose-6-phosphate glycated human hemoglobin (Hb-AGE), all containing cross-β structure, as well as negative controls mouse A islet amyloid polypeptide (ΔmIAPP), albumin-control and Hb-control, all three lacking the amyloid-specific structure, were coated to ELISA plates and overlayed with a concentration series of human factor XII. Binding of FXII was detected using a rabbit polyclonal anti-FXII antibody (Calbiochem, La Jolla, Calif., USA, catalogue #233504) and peroxidase-labeled swine anti-rabbit IgG. Wells were coated in triplicate. The FXII binding buffer included 10 mM HEPES pH 7.3, 137 mM NaCl, 11 mM D-glucose, 4 mM KCl, 1 mg ml^−1 albumin, 50 μM ZnCl2, 0.02% (m/v) NaN3 and 10 mM ε-amino caproic acid (εACA). Lysine analogue εACA was added to avoid putative binding of FXII to cross-β structure via the FXII kringle domain. In addition, binding of FXII to hAβ (1-40) and the prototype amyloid human amylin fragment hΔIAPP was tested using dot blot analysis. […]

[13] = test system: ΔmIAPP, albumin-control and Hb-control; experiment: ELISA: binding of human FXII to negative controls
Protocol: as §3

[14] = molecular target: T9, hAβ (1-40) (Homo sapiens, UniProt P05067); experiment: Dot blot: binding of FXII to hAβ (1-40); settings: 2 nM FXII
T9 construct: Peptide Aβ (1-40), containing amino acids as present in the described human Alzheimer peptide; purchased Pepscan, Inc. or peptide synthesis facility of the Netherlands Cancer Institute; host or cells: chemical synthesis
Protocol: as §3

[15] = molecular target: T5, mΔIAPP; experiment: Dot blot: binding of FXII to mΔIAPP; settings: 2 nM FXII
Protocol: as §3

T2 sequence (P02769 25-607): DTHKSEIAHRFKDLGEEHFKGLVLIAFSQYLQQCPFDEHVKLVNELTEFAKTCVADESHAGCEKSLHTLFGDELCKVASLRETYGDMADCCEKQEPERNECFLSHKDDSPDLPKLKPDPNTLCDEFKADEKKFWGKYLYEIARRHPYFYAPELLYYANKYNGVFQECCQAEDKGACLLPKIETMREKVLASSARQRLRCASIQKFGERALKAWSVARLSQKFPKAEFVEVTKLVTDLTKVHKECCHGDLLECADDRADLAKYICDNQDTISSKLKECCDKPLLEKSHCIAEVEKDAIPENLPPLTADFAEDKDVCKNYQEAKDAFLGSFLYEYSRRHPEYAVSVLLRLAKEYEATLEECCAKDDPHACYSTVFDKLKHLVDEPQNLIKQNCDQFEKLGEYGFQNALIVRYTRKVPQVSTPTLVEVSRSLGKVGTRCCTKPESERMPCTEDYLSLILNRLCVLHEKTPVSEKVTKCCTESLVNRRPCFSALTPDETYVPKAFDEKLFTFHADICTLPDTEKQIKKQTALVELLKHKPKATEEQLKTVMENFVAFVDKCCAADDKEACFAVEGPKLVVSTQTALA
T1 sequence (P00750 36-562): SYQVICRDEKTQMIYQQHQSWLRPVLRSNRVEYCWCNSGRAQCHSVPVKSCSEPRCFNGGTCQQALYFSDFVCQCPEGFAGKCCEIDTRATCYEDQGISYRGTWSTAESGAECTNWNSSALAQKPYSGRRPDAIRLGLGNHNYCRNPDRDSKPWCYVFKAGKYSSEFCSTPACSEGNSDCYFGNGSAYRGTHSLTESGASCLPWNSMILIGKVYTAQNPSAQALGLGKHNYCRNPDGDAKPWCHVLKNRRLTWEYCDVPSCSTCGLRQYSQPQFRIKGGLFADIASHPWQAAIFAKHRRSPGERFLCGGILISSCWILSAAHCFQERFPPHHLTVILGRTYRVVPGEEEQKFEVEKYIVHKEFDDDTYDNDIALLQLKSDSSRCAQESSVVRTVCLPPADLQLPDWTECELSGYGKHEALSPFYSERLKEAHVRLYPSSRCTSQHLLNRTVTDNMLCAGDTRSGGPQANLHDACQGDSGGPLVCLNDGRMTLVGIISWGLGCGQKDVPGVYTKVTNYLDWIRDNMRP
T3 sequence (P02769 25-607): as the sequence (P02769 25-607) above
T6 sequence (P05067 672-711): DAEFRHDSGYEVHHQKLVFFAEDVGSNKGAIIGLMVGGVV
T9 sequence (P05067 672-711): as above
T7 sequence (P05067 672-711): as above
Chain of Aβ (1-40) (P05067 672-711): as above

endostatin
induction of cell death [1]: capable of efficiently inducing cell death | stimulation of tPA-mediated plasmin formation [2]: stimulating activity

tPA: Alteplase (recombinant tissue-type plasminogen activator, tPA) from Boehringer-Ingelheim
binding of control tPA to albumin-g6p [3]: bound | inhibition of FXII binding to albumin-AGE [4]: effectively abolished | inhibition of H-43 binding to immobilized IAPP [5]: effectively diminished | competition with binding of Thioflavin T to glycated albumin [6]: competed | binding to non-amyloid mΔIAPP [7]: No binding | binding of control tPA to human Aβ (1-40) [8]: bound | inhibition of anti-AGE1 binding to amyloid peptides [9]: inhibited | inhibition of FXII binding to hAβ (1-40) [10]: efficiently inhibits | binding to Aβ in the presence of εACA [11]: no effect

FXII: human FXII (Calbiochem, catalogue #233490)
binding to spotted hΔIAPP [12]: specifically bound | binding to negative controls ΔmIAPP, albumin-control and Hb-control [13]: does not bind | binding to spotted hAβ (1-40) [14]: specifically bound | binding to spotted mΔIAPP [15]: No binding
